B1: 22-mer inverted repeat, 6-FAM (dsDNA)
DNA 1: TTTGTTCTCTAAAGAGAACTTA
DNA 2: TAAGTTCTCTTTAGAGAACAAA
B2: SinI (antagonist of SinR) (natural protein, Bacillus subtilis, UniProt P23308 1-57, looked up)
chain: MKNAKQEHFELDQEWVELMVEAKEANISPEEIRKYLLLNKKSAHPGPAARSHTVNPF
B3: SinI^quad (SinI K34E, L38Y, K41W, S42R) (natural protein, Bacillus subtilis, UniProt P23308 1-57, looked up)
chain: B2 chain with K34E, L38Y, K41W, S42R
B4: 90 bp tapA-sipW-tasA promoter bending substrate (dsDNA)
DNA 1: GAAAGTTCTCTAAAGAGAACATTATAAATAATAAGGGAAGTGCAGTAAATTAGAGGAAAATCATGTATTGTTCTCTAAAGAGAACTTAG
DNA 2: CTAAGTTCTCTTTAGAGAACAATATCATGATTTTCCTCTAATTTACTGCACTTCCCTTATTATTTATAATGTTCTCTTTAGAGAACTTTC
modifications: internal fluorescein-dT (T22 of strand 1); internal BHQ-1-dT (T25 of strand 2), both written as T
B5: SinR (full-length, tetrameric transcriptional repressor) (natural protein, Bacillus subtilis, UniProt P06533 1-111, looked up)
chain: MIGQRIKQYRKEKGYSLSELAEKAGVAKSYLSSIERNLQTNPSIQFLEKVSAVLDVSVHTLLDEKHETEYDGQLDSEWEKLVRDAMTSGVSKKQFREFLDYQKWRKSQKEE

The data set “SEC” deals with the molecule itself. The data set is described as follows: SEC.
Data set [1] has as its target T1, SinR (Bacillus subtilis, UniProt P06533 1-111).
T1 sequence: B5 chain
The data set can be described thus: fluorescence anisotropy/polarization. A general note: In fluorescence polarisation assays a small probe gives low polarisation when free and higher when bound to something large.

Data set [2] has as its target B5. The data set is described as follows: AUC.
The data set “AUC” deals with the molecule itself. The data set is described as follows: AUC.
The target in data set [3] is T1, SinR. The data set is described as follows: fluorescence quenching DNA-bending assay.

Changes are numbered by the printed parent chain. In names and notes the source's numbering stands.

Usually stoichiometry N stands for the number of molecules, sites or subunits per partner or assembly. On to EYDGQLDSEWEKLVRDAMTSGVSKKQFREFLDYQKWRKSQKEE (domain or fragment, Bacillus subtilis, UniProt P06533 69-111, looked up) [SinRC, the C-terminal oligomerization domain of SinR (residues 69-111)], for which, in the data set “SEC”, the “stoichiometry N” value is 4.

The term Kd denotes the constant that tells how readily two partners part at equilibrium. Read a high Kd as weaker binding. In the case of B1, the Kd with SinR [1] was 249 ± 38 nM.

Regarding B2, the “stoichiometry N” value in “SEC” stood at 2. The binding result in data set [2] was “binds”.

In the case of B3, the “stoichiometry N” value in the data set “AUC” is 2. Besides, the binding result in data set [2] is “binds”.

For B4, the binding result with SinR [3] is “binds”.

B5: in “SEC”, the “stoichiometry N” value turned out to be 4.

The values are drawn from publication PMC7384550 (Journal of molecular biology, 2019).
